One molecule from PMC5915145, “CNPY2 inhibits MYLIP-mediated AR protein degradation in prostate cancer cells” (Oncotarget, 2018) can be followed below.

In the experiment the target is T1, recombinant UBE2D1-His (UniProt P51668 1-147).
T1 construct: UBE2D1 (UbcH5a), E2 ubiquitin conjugating enzyme; The methods of the pull-down call it UBE2D-His; also called UBE2D-His; source: E. coli, recombinant (pET29a (+) or pGEX4T1 vector); purification not described; not shown: His, C-terminal, kept
Kind of experiment: pull-down; GST-RING (8 ug) on Glutathione Sepharose beads with recombinant UBE2D-His (5 ug) or immunoprecipitated FLAG-CNPY2 (5 or 15 ug), 4 C, 30 min; 50 mM Tris-HCl pH 7.5, 150 mM NaCl, 5 mM EDTA, 0.5% NP40; immunoblotting. The conditions noted are these: both partners purified.

T1 sequence (P51668 whole entry): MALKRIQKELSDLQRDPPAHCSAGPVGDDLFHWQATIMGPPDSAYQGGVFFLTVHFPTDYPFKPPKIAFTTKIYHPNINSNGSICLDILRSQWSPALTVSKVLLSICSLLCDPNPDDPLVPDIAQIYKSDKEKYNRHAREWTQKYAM

B1: recombinant GST-fused RING domain of MYLIP (344-445 a.a.) (domain or fragment, UniProt Q8WY64 344-445, looked up)
chain: QSPSHSPLKSSESSMNCSSCEGLSCQQTRVLQEKLRKLKEAMLCMVCCEEEINSTFCPCGHTVCCESCAAQLQSCPVCRSRVEHVQHVYLPTHTSLLNLTVI
notes: MYLIP, RING domain, residues 344-445; Held on Glutathione Sepharose beads in the pull-down; pGEX4T1 vector); also called GST-RING; MYLIP RING; source: E. coli BL21 (DE3), purified (Glutathione Sepharose, eluted with 40 mM reduced glutathione); not shown: GST, N-terminal, kept
In the case of B1, the binding result was “binds”.
